B1: STK38L (parent)
chain: FCIDSENRIGNSGVEEIKGHPFFE
B2: TRIM14 (parent)
chain: YARTPTLDPDTMHARLRLSADRLT

Variants of: B1
Experiment: protein stability index of a GFP-peptide fusion (GPS, HEK-293T) (PSI 1-6); higher = more stable
Conditions: c terminus: a fixed tail appended
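Further: lentivirally expressed fusions sorted by FACS into six bins by GFP to DsRed ratio, PSI derived from sequencing read proportions per bin multiplied by bin number.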

Protein stability index: each site, then its substitutions
I3: K 2.5; E 3.95; M 2.9; L 2.57; H 2.75; Y 2.16; A 2.04; W 2.19; C 1.96; F 2.23; D 4.02; R 2.49; S 2.3; V 3.26; P 1.85; N 3.43; T 3.6; Q 3.06; G 3.29
F1: D 4.9; C 2.84; W 3.19; S 4.34; A 4.85; V 3.77; K 4.3; G 4.26; P 4.45; R 5.09; N 4.4; L 3.66; E 4.61; Y 2.48; T 4.42; M 4.78; H 4.55; I 3.24; Q 4.91
D4: H 2.8; K 2.83; I 2.24; Y 2.07; M 2.86; V 2.22; R 1.7; T 2.44; A 2.09; F 1.46; G 2; E 2.91; S 1.3; L 1.25; Q 2.78; W 1.84; N 1.89; P 3.47
S5: A 1.95; D 2.61; E 3.39; C 2
C2: F 3.12; R 3; Y 2.61; G 4.21; I 2.69; H 1.99; P 2.39; E 4.7; T 3.25; M 3.58; D 3.12; Q 2.33; V 2.03; S 3.61; W 2.62; K 3.37; N 2.93; A 2.58; L 2.94

Variants of: B2
Experiment: as above
Conditions: c terminus: a fixed tail appended

Protein stability index: each site, then its substitutions
D21: H 3.32; K 2.06; I 1.23; R 2.02; A 2.43; W 1.62; C 2.77; F 2.34; V 1.52; P 2.06; G 2.08; T 2.61; E 2.53; Q 2.91; L 1.8; M 1.96; S 3.05; N 2.54; Y 1.6
L23: M 3.06; Y 2.44; G 2.58; D 3.38; S 2.73; R 3.21; A 2.96; T 2.55; Q 3.12; N 2.87; W 2.03; P 2.67; I 2.62; E 4.03; H 3.21; K 3.43; F 2.13; C 2.51
A20: I 2.85; P 2.6; Y 2.18; T 2.5; L 2.04; M 2.35; V 1.96; K 3.38; R 1.49; Q 1.84; N 2.55; W 3.31; S 3.14
R22: Y 2.62; H 2.97; I 2.74; D 3.09; L 2.68; P 2.31; V 2.26; A 2.57; S 2.81; W 2.01; C 2.76; E 3.31; K 2.33; M 2.16; Q 2.59; F 2.52; T 2.62; N 2.77; G 2.76
T24: A 2.82; F 1.65; D 3.87; S 2.54; L 1.76; M 2.48; V 2.21; Q 2.67; N 2.92; W 1.73; C 2.51; I 2.84; G 3.09; H 2.39; P 2.17; K 3.2; Y 2.08; R 3.13; E 3.02

Source: the supplement of paper PMC10567573
